From paper doi:10.1101/2023.04.07.535877

Key:
[1] = target: glutamine synthetase type I-α from Methermicoccus shengliensis (Methermicoccus shengliensis (endogenous, ZC-1, DSM 18856)); experiment: native gel or EMSA
[2] = target: glutamine synthetase type I-α from Methermicoccus shengliensis (Methermicoccus shengliensis (endogenous, ZC-1, DSM 18856)); experiment: crystal structure
[3] = target: glutamine synthetase type I-α from Methanothermococcus thermolithotrophicus (Methanothermococcus thermolithotrophicus (endogenous, DSM 2095)); experiment: native gel or EMSA
[4] = target: glutamine synthetase type I-α from Methanothermococcus thermolithotrophicus (Methanothermococcus thermolithotrophicus (endogenous, DSM 2095)); experiment: crystal structure

Row | stoichiometry N [1] | stoichiometry N [2] | stoichiometry N [3] | stoichiometry N [4] | Substance
1 | 12 | 12 | – | – | glutamine synthetase type I-α from Methermicoccus shengliensis (enzyme)
2 | – | – | 12 | 12 | glutamine synthetase type I-α from Methanothermococcus thermolithotrophicus (enzyme)
